The target of test [1] is T1, human kallikrein 14 (hK14) (human, UniProt Q9P0G3 25-251, limits assumed).
T1 construct: range counted on GenBank AAK48524 (printed), which may differ from the UniProt numbering; also called recombinant hK14
T1 sequence (looked up): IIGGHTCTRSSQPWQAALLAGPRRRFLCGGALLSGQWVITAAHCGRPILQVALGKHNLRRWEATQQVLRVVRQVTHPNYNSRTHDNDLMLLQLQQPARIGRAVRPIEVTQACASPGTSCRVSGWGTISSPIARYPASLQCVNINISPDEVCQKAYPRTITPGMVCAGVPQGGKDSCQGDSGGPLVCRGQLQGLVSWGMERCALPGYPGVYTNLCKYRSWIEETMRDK
In words: residual hK14 activity after 4 h at 37 C against [I0]/[E0]. The method, then:
SI values of rAAT, rACT, and their variants were determined with hK14 incubating the protease with varying concentrations of inhibitor. After an incubation of 4 hours at 37° C. in reaction buffer (50 mM Tris, pH 7.5, 150 mM NaCl, 0.05% Triton X-100, 0.01% BSA), the residual activity was detected by the addition of fluorescent substrate (Boc-Val-Pro-Arg-AMC). Fluorescence was measured with excitation at 340 nm (±15) and emission at 485 nm (±10) in black 96 well plates using a microplate fluorescence reader FLₓ800 (Bio-Tek Instruments, Inc.). The SI value corresponds to the abscissa intercept of the linear regression analysis of fractional velocity (velocity of inhibited enzyme reaction (vi)/velocity of uninhibited enzyme reaction (v₀)) vs. the molar ratio of the inhibitor to enzyme ([I₀]/[E₀]).

For test [2], the target named is prostate specific antigen (PSA, hK3) (human, UniProt P07288 25-261). The test can be described thus: cell-based or functional assay.
In the next test the target is human kallikrein 6 (hK6) (human, UniProt Q92876 22-244). The test can be described thus: cell-based or functional assay.
A further test concerns the target T2, human kallikrein 8 (hK8) (human, UniProt O60259 33-260).
T2 sequence (looked up): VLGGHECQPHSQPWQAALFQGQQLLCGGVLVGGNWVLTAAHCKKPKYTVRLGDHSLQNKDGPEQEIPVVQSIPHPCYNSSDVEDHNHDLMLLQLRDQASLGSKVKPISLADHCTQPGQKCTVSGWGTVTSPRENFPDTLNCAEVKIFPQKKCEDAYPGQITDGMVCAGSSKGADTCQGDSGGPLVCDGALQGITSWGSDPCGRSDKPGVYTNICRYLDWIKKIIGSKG
The test can be described thus: cell-based or functional assay.

Test [3] addresses T3, human chymotrypsin (Chtr) (human, UniProt P17538 19-263). The test can be described thus: cell-based or functional assay.
The target in test [4] is thrombin. In words: cell-based or functional assay.
Test [5] deals with T4, human kallikrein 13 (hK13) (human, UniProt Q9UKR3 26-277, limits assumed).
T4 sequence (looked up): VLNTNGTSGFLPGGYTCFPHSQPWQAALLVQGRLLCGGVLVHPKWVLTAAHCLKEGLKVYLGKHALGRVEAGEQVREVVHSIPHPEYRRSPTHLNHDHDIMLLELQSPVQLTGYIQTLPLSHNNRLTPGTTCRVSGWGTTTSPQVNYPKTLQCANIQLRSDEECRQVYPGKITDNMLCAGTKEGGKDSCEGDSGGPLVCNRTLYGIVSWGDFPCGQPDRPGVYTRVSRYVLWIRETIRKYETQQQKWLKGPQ
The test can be described thus: cell-based or functional assay.

The next test concerns the target human kallikrein 2 (hK2) (human, UniProt P20151 25-261). In words: cell-based or functional assay.
Test [6] addresses T1, human kallikrein 14 (hK14). The test can be described thus: cell-based or functional assay.
The next test concerns the target human kallikrein 4 (hK4) (human, UniProt Q9Y5K2 31-254, limits assumed). The test can be described thus: cell-based or functional assay.
The target of a further test is T5, human kallikrein 5 (hK5) (human, UniProt Q9Y337 67-293, limits assumed).
T5 sequence (looked up): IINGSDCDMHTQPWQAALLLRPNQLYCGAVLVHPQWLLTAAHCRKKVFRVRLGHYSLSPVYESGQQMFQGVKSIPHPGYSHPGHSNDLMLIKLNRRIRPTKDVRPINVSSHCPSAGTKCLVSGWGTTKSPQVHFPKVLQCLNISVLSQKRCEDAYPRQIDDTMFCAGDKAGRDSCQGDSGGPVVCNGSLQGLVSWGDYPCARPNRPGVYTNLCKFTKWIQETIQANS
The test can be described thus: cell-based or functional assay.

Test [7] deals with T6, human neutrophil elastase (HNE) (human, UniProt P08246 30-247, limits assumed).
T6 sequence (looked up): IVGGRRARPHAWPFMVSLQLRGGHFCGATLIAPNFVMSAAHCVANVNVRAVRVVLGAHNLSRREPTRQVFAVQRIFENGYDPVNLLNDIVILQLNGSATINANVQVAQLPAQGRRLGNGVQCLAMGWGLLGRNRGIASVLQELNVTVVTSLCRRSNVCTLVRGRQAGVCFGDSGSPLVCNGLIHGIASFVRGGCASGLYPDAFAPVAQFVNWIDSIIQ
In words: cell-based or functional assay.

Test [8] addresses T7, human plasma kallikrein (PK) (human, UniProt P03952 20-638). The test can be described thus: cell-based or functional assay.
Test [9] concerns the target T1, human kallikrein 14 (hK14). The test can be described thus: residual hK14 activity against [I0]/[E0]. A digest of the protocol:
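hK14 preincubated 4 hours at 37° C with varying inhibitor concentrations in 50 mM Tris pH 7.5, 150 mM NaCl, 0.05% Triton X-100, 0.01% BSA; residual activity read with Boc-Val-Pro-Arg-AMC (ex 340/em 485 nm). SI taken as abscissa intercept of vi/v₀ versus [I₀]/[E₀] linear regression.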

Test [10] addresses T1, human kallikrein 14 (hK14). The test can be described thus: progress curve, pseudo-first order, 37 C. The method, then:
The association rate constants for interactions of hK14, with different inhibitors were determined under pseudo-first order conditions using the progress curve method (Morrison and Walsh, 1988). Under these conditions, a fixed amount of enzyme (2 nM) was mixed with different concentrations of inhibitor (0-80 nM) and an excess of substrate (20 μM). Reactions were performed in reaction buffer (50 mM Tris pH 7.5, 150 mM NaCl, 0.05% Triton X-100, 0.01% BSA) at 37° C. for 45 min and the rate of product formation was measured using a FLₓ800 fluorescence 96-well microplate reader (Biotek, USA) Inhibition is considered to be irreversible over the course of reaction and the progression of enzyme activity is expressed as product formation (P), beginning at a rate (vz) and is inhibited over time (t) at a first-order rate (kobs), where the rate constant is only dependent on the inhibitor concentration.
Kinetic analysis of the inhibition of human hK14 by recombinant serpins were performed under pseudo-first-order conditions using an excess of inhibitor at various molar ratios of hK14. The time-dependent inactivation of the enzyme through reaction with serpin was monitored continuously, following the decrease in the rate of substrate turnover. Progress curves for reactions with different serpin concentrations were fitted to equation 1 to calculate values describing the rate constant (kobs). The association rate constants (kₐ) were determined from the slope of kobs values versus the concentration of the hK14 inhibitors.

The target in test [11] is T1, human kallikrein 14 (hK14). In words: progress curve.
Test [12] deals with T3, human chymotrypsin (Chtr). In words: cell-based or functional assay. This is another data set of the same source.
The target of test [13] is thrombin. The test can be described thus: cell-based or functional assay. The source holds these as a separate data set.
Test [14] addresses T1, human kallikrein 14 (hK14). In words: cell-based or functional assay. The source holds these as a separate data set.
Test [15] addresses urokinase plasminogen activator (uPA) (UniProt P00749 21-431, limits assumed). In words: cell-based or functional assay.
Test [16] concerns the target T6, human neutrophil elastase (HNE). The test can be described thus: cell-based or functional assay. The source holds these as a separate data set.
Test [17] addresses T7, human plasma kallikrein (PK). The test can be described thus: cell-based or functional assay. This is another data set of the same source.

T7 sequence (P03952 20-638 limits assumed): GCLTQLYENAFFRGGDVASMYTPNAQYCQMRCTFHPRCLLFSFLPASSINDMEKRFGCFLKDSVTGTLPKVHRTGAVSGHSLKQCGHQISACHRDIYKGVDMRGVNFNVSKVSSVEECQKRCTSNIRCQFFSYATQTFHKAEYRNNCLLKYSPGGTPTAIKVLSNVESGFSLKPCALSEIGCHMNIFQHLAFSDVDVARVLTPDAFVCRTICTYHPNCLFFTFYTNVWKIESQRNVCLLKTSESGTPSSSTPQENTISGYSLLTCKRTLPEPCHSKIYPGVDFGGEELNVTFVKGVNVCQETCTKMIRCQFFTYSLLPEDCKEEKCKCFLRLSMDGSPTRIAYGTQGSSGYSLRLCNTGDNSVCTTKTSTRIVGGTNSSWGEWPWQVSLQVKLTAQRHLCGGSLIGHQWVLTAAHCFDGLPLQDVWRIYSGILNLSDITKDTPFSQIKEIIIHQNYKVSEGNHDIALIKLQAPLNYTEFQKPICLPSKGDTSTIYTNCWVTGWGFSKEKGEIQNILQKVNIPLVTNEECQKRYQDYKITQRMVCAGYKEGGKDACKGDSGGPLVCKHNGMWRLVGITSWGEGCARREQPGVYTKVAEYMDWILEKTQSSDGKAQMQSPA
T3 sequence (P17538 19-263): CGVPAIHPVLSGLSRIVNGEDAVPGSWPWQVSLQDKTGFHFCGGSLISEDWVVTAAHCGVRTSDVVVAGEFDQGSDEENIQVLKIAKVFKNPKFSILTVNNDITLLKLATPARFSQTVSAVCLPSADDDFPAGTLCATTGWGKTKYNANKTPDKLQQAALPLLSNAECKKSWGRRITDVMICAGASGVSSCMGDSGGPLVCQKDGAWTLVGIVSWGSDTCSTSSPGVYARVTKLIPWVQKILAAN
Chain of human kallikrein 4 (hK4) (Q9Y5K2 31-254 limits assumed): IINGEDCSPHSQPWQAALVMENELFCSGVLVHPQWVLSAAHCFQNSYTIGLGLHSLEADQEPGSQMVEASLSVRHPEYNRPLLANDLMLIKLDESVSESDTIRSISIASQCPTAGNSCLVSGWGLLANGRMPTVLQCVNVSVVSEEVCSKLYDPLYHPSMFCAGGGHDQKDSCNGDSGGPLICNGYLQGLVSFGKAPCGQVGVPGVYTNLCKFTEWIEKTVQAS

B1: ACTE8 (other)
chain: MRGSHHHHHHSRHPNSPLDEENLTQENQDRGTHVDLGLASANVDFAFSLYKQLVLKAPDKNVIFSPLSISTALAFLSLGAHNTTLTEILKGLKFNLTETSEAEIHQSFQHLLRTLNQSSDELQLSMGNAMFVKEQLSLLDRFTEDAKRLYGSEAFATDFQDSAAAKKLINDYVKNGTRGKITDLIKDLDSQTMMVLVNYIFFKAKWEMPFDPQDTHQSRFYLSKKKWVMVPMMSLHHLTIPYFRDEELSCTVVELKYTGNASALFILPDQDKMEEVEAMLLPETLKRWRDSLEFREIGELYLPKFSISRDYNLNDILLQLGIEEAFTSKADLSGITGARNLAVSQVVHKAVLDVFEEGTEASAATAVKILQRAILVETRTIVRFNRPFLMIIVPTDTQNIFFMSKVTNPKQA
notes: also called rACTE8
Turning to B1, the “SI (stoichiometry of inhibition)” value in test [1] and in test [9] was 1.2 throughout. The Percentage inhibition turned out to be 0% in test [2]; 72% in the test with human kallikrein 6 (hK6); 34% with human kallikrein 8 (hK8); 14% in test [3]; 0% with thrombin [4]; 0% in test [5]. Moreover, the Percentage inhibition in the test with human kallikrein 2 (hK2) was 100%; in test [6], 100%; in the test with human kallikrein 4 (hK4), 100%; with human kallikrein 5 (hK5) it was 100%; in [7], 0%; in test [8], 36%. Besides, the kon in test [10] and in test [11] was 575000 M⁻¹ s⁻¹ each time. For the same molecule, the % Inhibition (as a rule, the percentage by which the read-out fell short of the control) in [12] was 14%; with thrombin [13], 0%; in test [14] it was 100%; in test [15] it was 0%; in test [16] it was 0%; in test [17] it was 36%.
